Reference: the supplement of paper PMC10567573

B1: C8orf76 (parent)
chain: KLAEAYLNLGPALSAALASSQKQH
B2: CROP (parent)
chain: VFGRGDNISDVSKFLEDDKWMEE

Variants of: B1
Assay: protein stability index of a GFP-peptide fusion (GPS, HEK-293T) (PSI 1-6); higher = more stable
Conditions: c terminus: a fixed tail appended
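Note: lentivirally expressed fusions sorted by FACS into six bins by GFP to DsRed ratio, PSI derived from sequencing read proportions per bin multiplied by bin number.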

Protein stability index of substitutions, site by site:
N8: D 2.07 | P 2.02 | G 2.5 | C 3.63 | A 4.23 | Y 2.59 | Q 1.73 | L 2.33 | E 2.42 | K 1.33 | R 3.8 | V 3.33 | T 3.12 | S 3.78 | H 2.16 | W 3.78 | M 2.15 | F 2.74
G10: P 2.58 | T 2.12 | A 1.92 | N 2.08 | W 1.61 | Y 1.86 | C 2.66 | H 1.96 | I 3.16 | S 2.51 | V 2.73 | M 2.77 | D 1.88 | Q 2.21 | K 2.26 | F 2.51 | E 1.87 | R 1.94
K1: L 5.14 | A 2.64 | D 2.06 | Y 2.63 | N 3.67 | H 1.97 | V 2.25 | E 2.64 | C 4.61 | P 1.19 | I 2.14 | T 2.78 | Q 2.44 | W 3.61 | S 2.08
L7: A 1.6 | D 2.23 | H 1.94 | C 2.36 | F 2.53 | Y 2.07 | K 1.62 | S 2.21 | Q 1.54 | E 2.65 | M 1.53 | P 2.23 | T 1.7 | N 1.94 | I 2.59 | G 1.67 | V 3.1
L2: K 3.38 | P 3.15 | S 3.07 | W 2.89 | C 2.03 | Y 1.97 | A 2.15 | G 2.36 | M 1.68 | R 2.38 | T 2.8 | I 2.6 | V 1.33 | Q 2.57 | N 2.61 | E 3.62 | H 2.66 | D 3.38 | F 1.11
A3: C 3.15 | P 2.48 | S 1.82 | N 2.12 | R 2.24 | F 3.79 | D 3.08 | W 3.22 | I 2.07 | V 3.08 | T 1.52 | M 1.43 | E 1.85 | Q 1.72 | K 1.93 | L 3.56 | Y 3.71 | G 2.22 | H 2.29
Y6: C 2.32 | Q 2.73 | N 3.58 | D 3.94 | R 2.98 | P 3.59 | S 3.04 | W 2.08 | I 2.39 | E 3.65 | K 3.18 | A 1.54 | T 1.85 | H 2.3 | V 3.81
P11: F 2.45 | A 2.16 | I 2.53 | K 1.94 | C 2.49 | E 2.52 | H 1.84 | D 2.26
E4: Q 2.63 | M 4.83 | N 2.35 | Y 2.55 | V 1.39 | S 1.31 | W 3.01 | A 1.83 | C 1.57 | I 2.97 | D 2.2 | F 1.94 | K 1.43 | G 2.43 | T 3.2 | R 1.6 | H 3.03 | P 2.2
L9: E 2.36 | I 3.05 | P 2.75 | M 2.36 | G 2.68 | V 1.91 | A 4.3 | H 2.26 | N 2.89 | K 3.11 | Q 3.08 | T 2.62 | W 3.02 | D 3.5 | F 2.56 | Y 2.06 | C 1.36 | R 2.61 | S 1.96
A5: E 2.96 | L 4.98 | P 2.76 | M 3.68 | H 2.04 | W 1.58 | N 2.07 | R 2.27 | T 2.93 | Q 2.33 | G 2.03 | F 3.28 | K 1.82 | Y 4.03 | V 1.89 | D 2.44 | S 1.24 | C 4.48

Variants of: B2
Assay: as above
Conditions: c terminus: native

Protein stability index of substitutions, site by site:
L15: R 2.91 | Q 3.7 | C 2.64 | V 1.94 | I 1.93 | M 2.06 | P 2.81 | T 3.47 | F 1.06 | K 3.01 | E 3.77 | N 3.32 | H 3.35 | Y 2.21 | S 2.28 | W 2.1 | A 3.09 | G 2.8 | D 1.85
D17: L 1.29 | T 2.04 | A 2.29 | S 1.52 | E 2.41 | K 2.83 | H 1.34 | Q 2 | R 2.25 | F 3.45 | I 3.52 | V 1 | N 2.26 | Y 2.73
K19: C 1.62 | I 2.28 | L 1.89 | R 2.5 | S 3.53 | Y 2.22 | M 1.21 | N 2.35 | D 2.63 | A 1.27 | T 1.92 | W 1.75 | H 1.91 | V 2.27 | E 3.41 | G 1.95 | F 3.11 | P 3.01
D18: H 1.49 | W 2.04 | V 1.77 | N 2.44 | G 2.06 | F 1.66 | P 3.66 | S 1.31 | T 1.78 | Q 2.98 | L 1.97 | K 2.69 | A 1.3 | C 1.47
E22: Q 3.96 | H 4.54 | D 4.23 | A 4.23 | R 3.32 | F 3.47 | W 3.33 | N 4.31 | L 4.07 | M 4.28 | Y 3.73 | K 4.73 | V 4.25 | I 3.81 | T 4.94 | P 4.33 | C 4.69 | S 4.51
E16: S 2.03 | L 2.72 | K 1.97 | Q 1.95 | F 2.42 | A 2.44 | P 2.12 | I 1.65 | M 1.1 | T 1.66 | H 1.79 | C 1.46 | G 2.4 | V 2.59 | N 3.11
E23: K 4.76 | D 5 | A 4.36 | L 3.54 | C 4.1 | M 4.68 | I 4.38 | H 4.53 | N 4.41 | V 4.08 | S 4.6 | Y 3.76 | T 4.08 | Q 4.37 | P 3.67 | R 4.6 | F 3.61
M21: P 1.38 | Y 2.28 | A 1.86 | D 4.49 | I 1.27 | G 4.04 | N 1.43 | Q 2.94 | V 1.87 | H 2.25 | T 2.51 | E 4 | C 3.53 | S 2.52 | F 2.28 | W 1.97
F14: Y 2.03
W20: R 3.94 | H 4.34 | S 4.28 | T 4.17 | A 4.2 | L 2.54 | F 4.18 | D 4.04 | K 3.78 | N 4.72 | M 3.12 | E 4.25 | C 4.08 | G 3.92 | V 3.81 | I 3.97 | Y 3.39 | Q 3.4
